These are literature values, as cited in US7435406B2, “Methods for conducting metabolic analyses” (Target Discovery, Inc., priority 1999, dated 2008).

The conditions of this series: protein standards obtained from Sigma-Aldrich.

In the case of “Carbonic anhydrase II: protein standard from Sigma-Aldrich, Cat # T 6522”, the pl is reported as 4.5.

B1: Bovine ribonuclease A: protein standard from Sigma-Aldrich, Cat # R 5503 (protein, UniProt P61823 27-150, looked up)
Ribonuclease pancreatic: KETAAAKFERQHMDSSTSAASSSNYCNQMMKSRNLTKDRCKPVNTFVHESLADVQAVCSQKNVACKNGQTNCYQSYSTMSITDCRETGSSKYPNCAYKTTQANKHIIVACEGNPYVPVHFDASV
B1: the pl is recorded as 9.6.
